According to US20260049134A1 (UNIVERSITY OF FLORIDA RESEARCH FOUNDATION, published 2026):
Where a chain is given by its changes, count along the chain named. Numbers in names are those of the source.

T1: CADM1-His (Acro Biosystems) (human, UniProt Q9BY67 45-374)
T1 construct: Bought; also called CADM1/IGSF4A; not shown: His tag of the bought protein
T1 sequence: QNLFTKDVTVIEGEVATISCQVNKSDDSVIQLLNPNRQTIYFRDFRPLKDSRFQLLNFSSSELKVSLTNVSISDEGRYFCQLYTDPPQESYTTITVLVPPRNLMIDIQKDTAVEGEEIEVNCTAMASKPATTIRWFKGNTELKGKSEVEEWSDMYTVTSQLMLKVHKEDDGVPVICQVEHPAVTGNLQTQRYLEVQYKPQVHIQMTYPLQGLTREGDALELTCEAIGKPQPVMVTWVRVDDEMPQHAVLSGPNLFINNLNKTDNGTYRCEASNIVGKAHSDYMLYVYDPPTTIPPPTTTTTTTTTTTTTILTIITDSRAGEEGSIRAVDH

T2: IL13RA1
T2 construct: coated protein in the ELISA; also called IL13RA1-Fc-His (R&D Systems)
T2 chain: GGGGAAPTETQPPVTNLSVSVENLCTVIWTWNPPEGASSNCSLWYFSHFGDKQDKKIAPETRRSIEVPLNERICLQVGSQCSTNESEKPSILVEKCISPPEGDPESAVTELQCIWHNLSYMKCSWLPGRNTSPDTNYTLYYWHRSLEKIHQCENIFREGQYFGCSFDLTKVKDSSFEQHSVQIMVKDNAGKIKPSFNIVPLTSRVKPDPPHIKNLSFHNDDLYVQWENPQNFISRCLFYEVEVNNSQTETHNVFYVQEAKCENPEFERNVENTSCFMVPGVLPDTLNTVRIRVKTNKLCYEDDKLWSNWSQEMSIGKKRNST

T3: GARS, endogenous in H929 multiple myeloma cells (human, UniProt P41250 37-739, limits assumed)
T3 construct: Native protein pulled down from H929 lysates; also called Glycyl-tRNA synthetase; GlyRS
T3 sequence: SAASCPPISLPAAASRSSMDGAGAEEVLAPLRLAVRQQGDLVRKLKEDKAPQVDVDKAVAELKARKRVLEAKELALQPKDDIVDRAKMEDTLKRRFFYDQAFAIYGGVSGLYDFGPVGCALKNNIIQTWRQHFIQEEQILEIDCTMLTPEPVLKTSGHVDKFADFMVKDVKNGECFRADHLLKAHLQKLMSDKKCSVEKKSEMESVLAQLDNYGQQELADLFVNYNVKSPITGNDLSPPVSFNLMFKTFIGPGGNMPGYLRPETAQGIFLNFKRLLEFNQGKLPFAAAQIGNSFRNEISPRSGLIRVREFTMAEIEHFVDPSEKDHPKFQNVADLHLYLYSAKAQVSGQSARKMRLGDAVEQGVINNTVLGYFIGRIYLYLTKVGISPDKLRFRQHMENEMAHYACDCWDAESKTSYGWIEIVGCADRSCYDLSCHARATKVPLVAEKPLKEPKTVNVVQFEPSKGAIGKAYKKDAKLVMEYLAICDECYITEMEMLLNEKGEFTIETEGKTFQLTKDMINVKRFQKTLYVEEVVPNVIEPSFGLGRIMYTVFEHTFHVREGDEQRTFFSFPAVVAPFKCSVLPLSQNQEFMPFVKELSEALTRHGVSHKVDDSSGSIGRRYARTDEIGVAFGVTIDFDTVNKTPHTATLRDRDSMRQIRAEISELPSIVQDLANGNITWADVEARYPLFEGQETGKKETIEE

B1: TH9-0022 (antibody, human IgG1, kappa, L234A L235A, V domains shown)
VH: QSLEESGGRLVTPGTPLTLTCTVSGFSLSSYAMNWVRQAPGKGLEWIGIINSYGSTYYASWAKGRFTISKTSTTVDLKITSPTTEDTATYFCARVTYDSYGYGYAPYGMDLWGPGTLVTVSS
VL: LVMTQTPSSTSNAVGGTVTIKCQASQSIGNVLAWYQQKPGQPPKLLIYAASTLASGVPSRVGGSRSGTEYTLTISGVQREDAATYYCLGSDSDSDIAFGGGTELEILR
notes: also called TH9-022; negative control
B2: HW-42 chimeric rabbit-human IgG1 LA/LA/PG (antibody, V domains shown)
VH: QSVKESEGGLFKPADTLTLTCTVSGFSLSSNEISWVRQAPGEGLEYIGIIDTGGRAYYAVWARSRSTITRNTNLNTVTLKMTSLTAADTATYFCARGGVDTEWYAFSSWGPGTLVTVPS
VL: SFVLTQPASVQVNLGQTVSLTCTADTLSRRYASWYQQKPGQAPVLLIFRDTSRPSGVPDRFSGSSSGDTATLTISGAQAGDEADYYCATSDGSGSNYQYVFGGGTQLTVTG
notes: Fc-silenced (L234A/L235A/P329G) IgG1, lambda; Alexa Fluor 647-labeled in single-step flow cytometry; Cluster C-1
B3: HW-25 chimeric rabbit-human IgG1 LA/LA/PG (antibody, V domains shown)
VH: QSLEESGGRLVTPGTPLTLTCTVSGFSLSSYAMGWVRQAPGKGLEWIGIIDSRGSTYYATWAKGRFTISKTSTTVDLKITSPTTEDTATYFCAREDSYYYDSFNLWGPGTLVTVSS
VL: B2 VL with F48Y, D68N, N96S, Y99C
notes: as for B2
B4: HW-70 chimeric rabbit-human IgG1 LA/LA/PG (antibody, V domains shown)
VH: QSLEESGGRLVTPGTPLTLTCTVSGFSLSSNAMSWVRQAPGKGLEWIGTIDGYGYTYYASWAKGRFTVSKTSTTVDLKITSPTTEDTATYFCAREIYLGSNFWGPGTLVTISS
VL: B2 VL with F48Y, D68N, S90A, N96S, Y99F
notes: as for B2
B5: HW-113 chimeric rabbit-human IgG1 LA/LA/PG (antibody, V domains shown)
VH: QKQLVESGGGLVQPGGSLTLTCTVSGFSLNKYYMGWFRQAPGKGLEWIGVISRSGDTYYSSWAKGRFTISKASTTVDLRITSPTTEDTATYFCARDASSPGFHGDRLDLWGQGTLVTVSS
VL: B2 VL with R30S, F48Y, D68N, S93I, Q98L, Y99W
notes: Fc-silenced (L234A/L235A/P329G) IgG1, lambda; Alexa Fluor 647-labeled in single-step flow cytometry
B6: HW-1 chimeric rabbit-human IgG1 LA/LA/PG (antibody, V domains shown)
VH: QSLEESGGGLFKPTDTLTLTCTASGFSLGSSYAISWVRQAPGKELEWIGTIDSGRAYYARWAKSRSTITRNTNENTVTLKMTSLTAADTATYFCARDLIPTYSQDIWGPGTLVTISS
VL: B2 VL with F48Y, D68N, S95N, N96S, G111S
notes: Fc-silenced (L234A/L235A/P329G) IgG1, lambda; Alexa Fluor 647-labeled in single-step flow cytometry; Prototype of cluster C-1
B7: HW-97 chimeric rabbit-human IgG1 LA/LA/PG (antibody, V domains shown)
VH: QKQLVESGGRLVTPGTPLTLTCTVTGIDLSSHGMSWVRQAPGKGLEWIGVIYPSGSTWYASWARGRFTISKTSTTVDLKMTSLTTEDTATHFCARGDVGGADNNIWGPGTLVTVSS
VL: B2 VL with N13D, D25E, R30S, F48Y, D68N, N96S
notes: Fc-silenced (L234A/L235A/P329G) IgG1, lambda; Alexa Fluor 647-labeled in single-step flow cytometry; Prototype of cluster C-97
B8: HW-101 chimeric rabbit-human IgG1 LA/LA/PG (antibody, V domains shown)
VH: QEQLVESGGRLVTPGTPLTLTCKASGFSLGKYDMSWVRQAPGKGLEWIGTIYAGSGSTWYASWAKGRFTISKTSTTVDLKMTSLTTEDTATYFCARDFLGVNSIWGPGTLVTISS
VL: B2 VL with R30S, G40D, F48H, S65N, D68N, Y97F, Q98H, Y99F
notes: Fc-silenced (L234A/L235A/P329G) IgG1, lambda; Alexa Fluor 647-labeled in single-step flow cytometry; Cluster C-97
B9: HW-17 chimeric rabbit-human IgG1 LA/LA/PG (antibody, V domains shown)
VH: QSLGESRGRLVTPDETLTLTCTVSGIDLSSNAMSWVRQAPGEGLEWIGTINTGGRAYYASWAKGRFTISRTSTTVDLKMTSLTTEDTATYFCARERYSDGRAYDIWGPGTLVTISS
VL: B2 VL with F48Y, R49T, T51S, S52N, V57I, D68N, S90D, N96I
notes: as for B2
B10: TH9-0022 (antibody, human IgG1, kappa, L234A L235A, V domains shown)
VH: B1 VH
VL: B1 VL
notes: also called TH9-022; negative control IgG1
B11: HW-28 chimeric rabbit-human IgG1 LA/LA/PG (antibody, V domains shown)
VH: QKQLVESGGRLVTPGTPLTLTCTASGFSLSSNAMSWVRQAPGEGLQWIGTISSGGSTYYASWAKGRFTISKTSTTVTLKMTSLTTEDTATYFCARGADLHRLWGPGTLVTVSS
VL: B2 VL with A24G, D25K, T26P, R30S, Y31F, L46V, F48Y, D68N, N96S
notes: Fc-silenced (L234A/L235A/P329G) IgG1, lambda; Alexa Fluor 647-labeled in single-step flow cytometry; Cluster C-45
B12: HW-45 chimeric rabbit-human IgG1 LA/LA/PG (antibody, V domains shown)
VH: QKQLVESGGRLVTPGTPLTLTCTVSGFSLSSYAMGWFRQAPGKGLEWIGIINSYGSTYYASWAKGRFTISKTSTTVDLKITSPTTEDTATYFCGRRIGSARFDPWGPGTLVTVSS
VL: B2 VL with R30S, F48Y, S52R, D68N, N96S, Q98R, Y99L
notes: Fc-silenced (L234A/L235A/P329G) IgG1, lambda; Alexa Fluor 647-labeled in single-step flow cytometry; Prototype of cluster C-45

The binders below were run against T1, CADM1-His (Acro Biosystems) (assay: ELISA on coated CADM1-His).
Experimental: (§1) Recombinant purified ECDs (50-150 ng) of each putative target protein were coated, incubated with 150 ng of the indicated primary antibody, and binding was detected using a peroxidase-conjugated anti-human Fab secondary antibody. Heatmap represents averages of technical triplicates. (8B) Target validation via siRNA knockdown. H929 cells were transfected with siRNA pools targeting the putative antibody targets ICAM1, CADM1, and PTPRG. Cells were then subjected to cognate IgG binding analysis via flow cytometry. (NT, non-targeting siRNA).
(§2) ELISA ELISA was conducted as described previously. Briefly, 50-150 ng of antigen was coated overnight in half-area 96-well plates at 4° C., blocked with 3% BSA at 37° C. for 1 h, and 150 ng of chimeric rabbit/human IgG1 was added, incubating for 2 h at 37° C. […] After incubating at 37° C. for 15 min-1 h (depending on intensity of controls), data were acquired using a SpectraMax M5 plate reader (Molecular Devices).

Row | Binder | binding result
1 | B1 | no binding (tested: 150 ng IgG1 per well)
2 | B2 | no binding (tested: 150 ng IgG1 per well)
3 | B3 | no binding (tested: 150 ng IgG1 per well)
4 | B4 | no binding (tested: 150 ng IgG1 per well)

Target: T2, IL13RA1
Assay: ELISA on coated IL13RA1-Fc-His
Experimental: as §1, §2

Row | Binder | binding result
5 | B1 | no binding (tested: 150 ng IgG1 per well)
6 | B2 | no binding (tested: 150 ng IgG1 per well)
7 | B5 | no binding (tested: 150 ng IgG1 per well)
8 | B6 | no binding (tested: 150 ng IgG1 per well)
9 | B7 | no binding (tested: 150 ng IgG1 per well)
10 | B8 | no binding (tested: 150 ng IgG1 per well)
11 | B9 | no binding (tested: 150 ng IgG1 per well)
12 | B3 | no binding (tested: 150 ng IgG1 per well)
13 | B4 | no binding (tested: 150 ng IgG1 per well)

What follows are binders tested against T4, PTPRG, endogenous in H929 multiple myeloma cells (human, UniProt P23470 20-1445) (assay: flow cytometry, IgG1 on H929 cells).
T4 construct: Native protein on H929 cells (flow cytometry, siRNA knockdown) and in H929 lysates (IP/MS); also called phosphatase receptor type γ
Experimental: Staining protocol. Cells were harvested (5×10⁴ cells per sample), washed once with phosphate-buffered saline (PBS) at RT, and a second time with ice-cold FACS buffer (PBS, 0.5% BSA, 2 mM EDTA, 0.1% NaN₃). Cells were stained in 50 μL of primary antibody for 30 min on ice, washed twice with 100 μL FACS buffer, stained with 50 μL of diluted secondary antibody, washed two more times in FACS, and then resuspended in 50 μL FACS buffer. Samples were acquired on an Accuri C6 Plus or a BD FACSCanto II flow cytometer (both from BD Biosciences). Data were analyzed using FlowJo version 10 software. Primary antibodies: Fab (10 μg/mL), IgG1 (0.1 to 50 μg/mL), or 25 μL polyclonal Fabs from periplasmic extracts. Polyclonal Fabs were produced by diluting bacterial stocks by a factor of 100 in autoinduction media and incubating overnight to induce expression as previously described. […] Viability stains: DAPI (Cell Signaling Technology) or SYTOX AADvanced Dead Cell Stain (Thermo Fisher Scientific). Labeling: The panel of chimeric rabbit/human IgG1s was labeled using the Alexa Fluor 647 Labeling Kit (Thermo Fisher Scientific, #A20173) to facilitate single-step staining. Competition: Unlabeled IgG1s were added at saturating concentrations of 60 μg/mL to block the target receptors, incubating on ice for 30 min, followed by the addition of an equal volume of the Alexa Fluor 647 labeled antibody at 2 μg/mL, and the mixture was incubated on ice for another 30 min.

T4 sequence (P23470 20-1445 limits assumed): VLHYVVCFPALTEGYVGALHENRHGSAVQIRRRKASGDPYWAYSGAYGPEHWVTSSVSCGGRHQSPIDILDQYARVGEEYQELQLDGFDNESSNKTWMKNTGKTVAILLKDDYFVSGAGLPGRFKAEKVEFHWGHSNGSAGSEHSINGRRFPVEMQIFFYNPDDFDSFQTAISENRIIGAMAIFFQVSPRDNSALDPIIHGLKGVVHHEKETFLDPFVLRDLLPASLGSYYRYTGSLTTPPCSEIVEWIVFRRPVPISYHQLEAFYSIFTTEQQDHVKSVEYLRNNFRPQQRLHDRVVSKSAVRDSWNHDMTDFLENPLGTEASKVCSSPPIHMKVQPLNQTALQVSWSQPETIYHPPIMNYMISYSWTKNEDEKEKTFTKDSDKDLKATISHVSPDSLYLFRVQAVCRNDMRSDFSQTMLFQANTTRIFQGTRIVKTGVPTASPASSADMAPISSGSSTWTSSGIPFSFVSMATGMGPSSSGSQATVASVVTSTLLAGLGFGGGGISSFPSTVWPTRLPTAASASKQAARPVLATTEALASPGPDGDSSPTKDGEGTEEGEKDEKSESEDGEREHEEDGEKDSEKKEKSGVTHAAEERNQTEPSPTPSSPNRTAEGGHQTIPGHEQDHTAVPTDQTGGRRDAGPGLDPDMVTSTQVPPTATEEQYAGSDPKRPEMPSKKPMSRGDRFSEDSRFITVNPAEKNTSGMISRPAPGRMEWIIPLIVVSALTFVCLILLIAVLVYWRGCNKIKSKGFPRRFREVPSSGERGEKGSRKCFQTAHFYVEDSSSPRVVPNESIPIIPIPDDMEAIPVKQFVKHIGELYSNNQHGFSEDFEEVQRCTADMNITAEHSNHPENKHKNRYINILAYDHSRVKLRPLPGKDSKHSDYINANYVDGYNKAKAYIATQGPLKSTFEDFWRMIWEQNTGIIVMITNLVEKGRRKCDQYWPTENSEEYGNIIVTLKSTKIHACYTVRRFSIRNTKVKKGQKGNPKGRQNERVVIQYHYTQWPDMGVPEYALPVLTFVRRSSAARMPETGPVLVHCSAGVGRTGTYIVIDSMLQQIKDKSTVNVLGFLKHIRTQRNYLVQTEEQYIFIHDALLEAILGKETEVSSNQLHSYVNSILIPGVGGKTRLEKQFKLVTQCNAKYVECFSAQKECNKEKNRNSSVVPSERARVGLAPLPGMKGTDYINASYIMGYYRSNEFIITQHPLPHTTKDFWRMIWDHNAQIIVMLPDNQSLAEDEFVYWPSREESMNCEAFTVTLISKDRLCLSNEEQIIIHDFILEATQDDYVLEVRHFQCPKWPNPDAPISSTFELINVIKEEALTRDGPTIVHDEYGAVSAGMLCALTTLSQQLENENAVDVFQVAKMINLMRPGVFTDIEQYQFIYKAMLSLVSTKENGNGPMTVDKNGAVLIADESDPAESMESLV

Row | antibody-bound positive cells (%) | Binder
14 | 2.7 | B10
15 | 99.8 | B2
16 | 100 | B6
17 | 100 | B9
18 | 99.6 | B3
19 | 99.8 | B4

Each binder was assayed against T4, PTPRG, endogenous in H929 multiple … (assay: flow cytometry, H929 + NT Green siRNA; None 416).

Row | mAb binding (MFI) | Binder
20 | 483 | B1
21 | 8410 | B2
22 | 16000 | B6
23 | 18600 | B9
24 | 7680 | B3
25 | 12600 | B4

Each binder was assayed against T3, GARS, endogenous in H929 multiple … (assay: flow cytometry, H929 + CDH18 siRNA; None 443; surface target GARS putative).

Row | mAb binding (MFI) | Binder
26 | 164000 | B11
27 | 59600 | B12

These binders were tested against T3, GARS, endogenous in H929 multiple … (assay: flow cytometry, H929 + ICAM1 siRNA; None 1.06; surface target GARS putative).

Row | Cells stained (%) | Binder
28 | 96.9 | B11
29 | 95.1 | B12
